Laboratory results taken from patent US20220227811A1.
Several values for one entry are separate records, joined by “and”; a condition that tells them apart may be missing. Equal entries are not always repeated. Starred links: 1 amine or outer side, 2 acyl side, 3 side chain; linkers in the order of their positions; H or OH if unused. Positions of bridges follow the written chain, without caps; N, C: chain ends. Non-standard residues stand in square brackets, D forms with d. Chains are numbered I, II in the order given. No end group written: not given here. *: point of attachment. TATA = O=C(CC[*:1])N1CN(C(=O)CC[*:2])CN(C(=O)CC[*:3])C1; d1Nal = N[C@H](Cc1cccc2ccccc12)C(=O)O; Hyp = O=C(O)[C@@H]1C[C@@H](O)CN1; hArg = N=C(N)NCCCC[C@H](N)C(=O)O; tBuAla = CC(C)(C)C[C@H](N)C(=O)O; Nle = CCCC[C@H](N)C(=O)O; Pent4ynoyl = C#CCCC(=O)*

Legend:
[1] = biological target: CD137 on Jurkat reporter cells (Promega CD137 luciferase reporter assay, kit CS196005), Q07011; assay: cell-based or functional assay
[2] = biological target: CD137 on human PBMCs (anti-CD3 stimulated, co-culture assay) (human), Q07011; assay: cell-based or functional assay
[3] = biological target: human EphA2 protein (human), P29317; assay: SPR (Biacore T200), biotinylated EphA2 captured on a streptavidin chip, peptide as analyte, 1:1 fit
[4] = biological target: human EphA2 protein (human), P29317; assay: SPR (Biacore), biotinylated human EphA2 captured on a streptavidin chip, BCY13272 as analyte, 1:1 fit (Scrubber)
[5] = biological target: Recombinant human CD137 (R&D systems) (human), Q07011; assay: SPR (Biacore), biotinylated human CD137 captured on a streptavidin chip, BCY13272 as analyte, 1:1 fit (Scrubber)
Sequence of Recombinant human CD137 (R&D systems) (human), Q07011 (Q07011 24-186 limits assumed): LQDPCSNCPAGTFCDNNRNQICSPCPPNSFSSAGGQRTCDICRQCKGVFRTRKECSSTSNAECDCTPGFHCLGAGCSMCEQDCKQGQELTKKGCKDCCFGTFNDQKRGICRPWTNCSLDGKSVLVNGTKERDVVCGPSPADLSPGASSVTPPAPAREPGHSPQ

Sequence of human EphA2 protein (human), P29317 (P29317 25-534 limits assumed): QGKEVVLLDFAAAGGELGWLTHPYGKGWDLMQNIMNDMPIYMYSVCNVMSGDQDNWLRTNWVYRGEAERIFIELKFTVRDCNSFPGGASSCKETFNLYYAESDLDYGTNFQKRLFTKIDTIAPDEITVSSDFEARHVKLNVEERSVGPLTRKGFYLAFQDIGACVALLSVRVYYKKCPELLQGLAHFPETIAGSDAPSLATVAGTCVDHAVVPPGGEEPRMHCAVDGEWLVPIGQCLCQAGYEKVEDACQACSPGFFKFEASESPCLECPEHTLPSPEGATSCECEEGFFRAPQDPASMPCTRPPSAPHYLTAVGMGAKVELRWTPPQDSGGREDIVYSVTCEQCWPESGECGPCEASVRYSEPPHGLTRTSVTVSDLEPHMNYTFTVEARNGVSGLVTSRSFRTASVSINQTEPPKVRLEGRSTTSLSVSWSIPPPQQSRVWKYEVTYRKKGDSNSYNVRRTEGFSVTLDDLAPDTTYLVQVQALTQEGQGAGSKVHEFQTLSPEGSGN
Sequence of CD137 on Jurkat reporter cells (Promega CD137 luciferase reporter assay, kit CS196005), Q07011 (Q07011 24-255 limits assumed): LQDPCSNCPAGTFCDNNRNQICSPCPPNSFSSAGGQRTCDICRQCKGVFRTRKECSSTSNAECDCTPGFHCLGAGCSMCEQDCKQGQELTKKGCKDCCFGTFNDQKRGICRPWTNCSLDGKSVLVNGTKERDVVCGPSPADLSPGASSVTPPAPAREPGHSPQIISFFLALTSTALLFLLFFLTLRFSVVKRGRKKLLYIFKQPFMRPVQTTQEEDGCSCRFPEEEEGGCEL
Sequence of CD137 on human PBMCs (anti-CD3 stimulated, co-culture assay) (human), Q07011 (Q07011 24-255): as the sequence (Q07011 24-255 limits assumed) above

B1: EphA2/CD137 heterotandem bicyclic peptide complex BCY13272 (peptide)
peptide 1: A[hArg]DC[Hyp]LVNPLCLEP[d1Nal]WTC
peptide 2: Ac-C[tBuAla]PE[dK](Pent4ynoyl)PYCFADPY[Nle]CA
modifications: linker I:4-I:11-I:18, II:1-II:8-II:15 via TATA; not fully specified (N-terminus, bridges); also: chain 1 N-terminus coupled to N-(acid-PEG3)-N-bis(PEG3-azide) linker, D-Lys(PYA) of chain 2 clicked (triazole) to linker azide arm, complex has a second BCY8928 copy not listed as a chain
EC50 (nM), CD137 luciferase reporter assay, co-culture with EphA2 cell line A549 [1]: 0.107 nM and 0.132 nM and 0.147 nM
EC50 (nM), CD137 luciferase reporter assay, co-culture with EphA2 cell line HT-29 [1]: 0.567 nM and 0.187 nM and 0.205 nM
EC50 (nM), CD137 luciferase reporter assay, co-culture with EphA2 cell line PC-3 [1]: 0.245 nM and 0.0805 nM and 0.0898 nM
Emax (fold induction over background), CD137 luciferase reporter assay, co-culture with EphA2 cell line A549 [1]: 23.6 fold and 30.2 fold and 25.7 fold
Emax (fold induction over background), CD137 luciferase reporter assay, co-culture with EphA2 cell line HT-29 [1]: 36.5 fold and 26 fold and 36.4 fold
Emax (fold induction over background), CD137 luciferase reporter assay, co-culture with EphA2 cell line PC-3 [1]: 44.5 fold and 44.2 fold and 53 fold
Geo mean EC50/cell line, CD137 luciferase reporter assay, co-culture with EphA2 cell line A549 [1]: 0.127 nM
Geo mean EC50/cell line, CD137 luciferase reporter assay, co-culture with EphA2 cell line HT-29 [1]: 0.279 nM
Geo mean EC50/cell line, CD137 luciferase reporter assay, co-culture with EphA2 cell line PC-3 [1]: 0.117 nM
EC50 (nM) of IL-2 cytokine secretion, human PBMC co-culture with HT-1080 cells (N = 4) [2]: 0.55 nM
EC50 (nM) of IL-2 cytokine secretion, human PBMC co-culture with MC38 cells (N = 5) [2]: 0.79 nM
Kd [3]: 2 nM
koff [4]: 0.00102 s⁻¹
kon [4]: 502000 M⁻¹ s⁻¹
Kd [5]: < 0.0331 nM
koff [5]: < 1e-05 s⁻¹
kon [5]: 302000 M⁻¹ s⁻¹
